Source: the supplement of paper PMC9732359
± gives the uncertainty stated by the source.

assay: protein stability index of a GFP-peptide fusion (yeast GPS) (PSI 1-4); higher = more stable; sorted into four equal gates, so the index is relative within each strain; settings: san1∆
How it was run: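 The protein stability index of a peptide was calculated by multiplying its read frequency in each gate by that gate's number and adding the products. The peptides were tiled 17-residue stretches of yeast proteins, fused downstream of GFP on a Cherry-expressing plasmid and carried in yeast as a pooled library. Mid-log cultures in leucine-free medium were sorted into four equal gates by GFP/Cherry ratio, and each gate's plasmids were PCR-amplified and Illumina-sequenced.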

AAHYNRERIKRGAHVEK [PRP8] and AAKEGLALSSNISRDFQ [COR1] are within error of each other in protein stability index: 2.79 ± 0.29 for the first, 3.13 ± 0.079 for the second.

Going from AAKGSSTSYAIKKKDEL [RPS5] to AAKLRTLDYAERHGYIR [RPL2A], the protein stability index falls from 3.35 ± 0.087 to 2.9 ± 0.16.

Going from AAMVPFIKFKLIQQVPP [CDC53] to AAPAAAAAEIADEPVKA [FAS2], the protein stability index rises from 2.17 ± 0.1 to 2.56 ± 0.078.

Going from AAQTNATFLKLAAPQLV [RPT5] to AASLGDMVMATVKKGKP [RPL23A], the protein stability index rises from 2.41 ± 0.083 to 3.5 ± 0.099.

Going from AASLIMPFLDNQVNFKN [PRE7] to AAVETLYQDMAARHRAR [RPL20A], the protein stability index rises from 1.31 ± 0.17 to 2.91 ± 0.051.

Going from ACDPSEIEPILMEIHNI [RGR1] to ACLGNDGILRLYDALEP [YGL100W/SEH1], the protein stability index falls from 3.16 ± 0.08 to 1.86 ± 0.065.

First: ADDAISMHLLKDWTDTF [SRB8]
Second: ADEQKRSTDVWYEASTW [ARP7]
The protein stability index of the first is higher: 2.94 ± 0.044 for the first, 2.78 ± 0.052 for the second.

Going from ADGQTLFAGYTDNVIRV [ASC1] to ADKNCAKLHRISPKIWC [PUP1], the protein stability index falls from 2.22 ± 0.063 to 1.94 ± 0.059.

Going from ADLPGSYNLEYIESKFC [YMR129W/POM152] to ADQEQAKLIRSAIEHTT [RPO21], the protein stability index falls from 3.13 ± 0.14 to 2.82 ± 0.1.

Going from ADVTSNIDSSAQFTFGK [YOR098C/NUP1] to ADYWTHAYRDVLAQYHE [SNF6], the protein stability index rises from 2.89 ± 0.091 to 3.06 ± 0.058.

AEKLGSKKAEKTGTKPA [RPL4A] and AEKYQERSLRQKYNLLH [SNM1] are within error of each other in protein stability index: 3.13 ± 0.05 for the first, 3.23 ± 0.067 for the second.

Going from AEQPLPVSPLDIYSDEA [RPS2] to AEQSFDQQSPWLLRLEL [RPO21], the protein stability index rises from 2.9 ± 0.038 to 3.1 ± 0.039.

Going from AETTFLQDVIALSIADD [RPC53] to AFALAKEKAPTIIFIDE [RPT5], the protein stability index rises from 1.97 ± 0.12 to 2.83 ± 0.14.

AFFTYDAGVTFNKEQLN [ECM29] and AFGEFSLEGCVEMAWIM [FAS2] are within error of each other in protein stability index: 2.63 ± 0.083 for the first, 2.48 ± 0.079 for the second.

Compared with AFHLHCINKWIKTRDAC [HRT1], AFITQLESSITDAGVLA [YJL039C/NUP192] is lower in protein stability index: 1.66 ± 0.14 for the first, 1.16 ± 0.14 for the second.

Going from AFKHKRALVEHIIQAKA [RPL19A] to AFNFSFNTSRNVEPTEN [YAR002W/NUP60], the protein stability index rises from 3.19 ± 0.12 to 3.41 ± 0.064.

Going from AGLDKGISINNMMEHWD [RPO31] to AGQIPTGWNAKTYGISD [FAS2], the protein stability index falls from 3.02 ± 0.086 to 1.66 ± 0.26.

Compared with AGRGFTLAEVKAAGLTA [RPL13A], AGSTGFSFGQNNNNTNT [YGR119C/NUP57] is higher in protein stability index: 1.56 ± 0.093 for the first, 2.32 ± 0.092 for the second.

Compared with AHLYMLEPSGSYWGYKG [PRE10], AHTGATPIAGRFTPGSF [RPS0A] is higher in protein stability index: 2.06 ± 0.21 for the first, 2.52 ± 0.17 for the second.

same assay, conditions: ubr1∆

AAAVSGNNASDEPSRKK [SSN3] and AAEKSFKPPKNKYKVVR [SEC65] are within error of each other in protein stability index: 3.05 ± 0.11 for the first, 3.15 ± 0.12 for the second.

AAHYNRERIKRGAHVEK [PRP8] and AAKEGLALSSNISRDFQ [COR1] are within error of each other in protein stability index: 2.77 ± 0.19 for the first, 2.76 ± 0.096 for the second.

AAKGSSTSYAIKKKDEL [RPS5] and AAKLRTLDYAERHGYIR [RPL2A] are within error of each other in protein stability index: 3.28 ± 0.13 for the first, 3.37 ± 0.13 for the second.

Going from AAMVPFIKFKLIQQVPP [CDC53] to AAPAAAAAEIADEPVKA [FAS2], the protein stability index rises from 2.07 ± 0.068 to 2.53 ± 0.045.

Going from AAQTNATFLKLAAPQLV [RPT5] to AARYDYAVAEQCPVKSA [QCR2], the protein stability index falls from 2.86 ± 0.11 to 1.88 ± 0.065.

First: AASLGDMVMATVKKGKP [RPL23A]
Second: AASLIMPFLDNQVNFKN [PRE7]
The protein stability index of the first is higher: 2.91 ± 0.078 for the first, 1.39 ± 0.093 for the second.

AAVETLYQDMAARHRAR [RPL20A] and ACDPSEIEPILMEIHNI [RGR1] are within error of each other in protein stability index: 2.91 ± 0.064 for the first, 2.92 ± 0.067 for the second.

Going from ACLGNDGILRLYDALEP [YGL100W/SEH1] to ADDAISMHLLKDWTDTF [SRB8], the protein stability index rises from 1.96 ± 0.034 to 2.95 ± 0.065.

First: ADEQKRSTDVWYEASTW [ARP7]
Second: ADGQTLFAGYTDNVIRV [ASC1]
The protein stability index of the first is higher: 2.73 ± 0.048 for the first, 2.35 ± 0.057 for the second.

Going from ADKNCAKLHRISPKIWC [PUP1] to ADLPGSYNLEYIESKFC [YMR129W/POM152], the protein stability index rises from 2.14 ± 0.05 to 3.24 ± 0.093.

First: ADQEQAKLIRSAIEHTT [RPO21]
Second: ADVTSNIDSSAQFTFGK [YOR098C/NUP1]
The protein stability index of the first is lower: 2.84 ± 0.1 for the first, 3.13 ± 0.057 for the second.

Going from ADYWTHAYRDVLAQYHE [SNF6] to AEEFVAGVSHGTLGEIF [SMX3], the protein stability index rises from 2.81 ± 0.049 to 3.57 ± 0.28.

AEKLGSKKAEKTGTKPA [RPL4A] and AEKYQERSLRQKYNLLH [SNM1] are within error of each other in protein stability index: 3.06 ± 0.072 for the first, 3.12 ± 0.083 for the second.

Going from AEQPLPVSPLDIYSDEA [RPS2] to AEQSFDQQSPWLLRLEL [RPO21], the protein stability index rises from 2.92 ± 0.052 to 3.11 ± 0.04.

First: AETTFLQDVIALSIADD [RPC53]
Second: AFALAKEKAPTIIFIDE [RPT5]
The protein stability index of the first is lower: 2.18 ± 0.07 for the first, 2.88 ± 0.086 for the second.

Going from AFFTYDAGVTFNKEQLN [ECM29] to AFGEFSLEGCVEMAWIM [FAS2], the protein stability index falls from 2.58 ± 0.061 to 2.37 ± 0.088.

First: AFGGSATTGGGLFGNKP [YGL172W/NUP49]
Second: AFHLHCINKWIKTRDAC [HRT1]
The protein stability index of the first is higher: 3.16 ± 0.12 for the first, 2.19 ± 0.065 for the second.

Compared with AFITQLESSITDAGVLA [YJL039C/NUP192], AFKHKRALVEHIIQAKA [RPL19A] is higher in protein stability index: 1.08 ± 0.096 for the first, 3.19 ± 0.072 for the second.

Going from AFNFSFNTSRNVEPTEN [YAR002W/NUP60] to AGAAGAAAGGDAAEEEK [RPP2B], the protein stability index falls from 3.04 ± 0.051 to 1.27 ± 0.27.

Going from AGLDKGISINNMMEHWD [RPO31] to AGQIPTGWNAKTYGISD [FAS2], the protein stability index falls from 3.14 ± 0.05 to 1.23 ± 0.09.

Going from AGRGFTLAEVKAAGLTA [RPL13A] to AGSTGFSFGQNNNNTNT [YGR119C/NUP57], the protein stability index rises from 1.77 ± 0.044 to 2.32 ± 0.064.

First: AHLYMLEPSGSYWGYKG [PRE10]
Second: AHTGATPIAGRFTPGSF [RPS0A]
The protein stability index of the first is lower: 1.84 ± 0.082 for the first, 2.81 ± 0.12 for the second.
